The target of the assay is T1, human FGFR2b expressed on cells (human, UniProt P21802-3 22-822).
T1 construct: whole, on cells; Used for the CHOK1 transfectants (FACS), the Ba/F3 cells with full-length human FGFR2b (ADCC) and the receptor on SNU-16 cells (signalling, proliferation); also called hFGFR2b-expressing CHOK1 cells; CHOK1-FGFR2IIIb transfectants
The assay is described as follows: flow cytometry on CHOK1 cells expressing hFGFR2b. In general terms: In flow cytometry, cells or beads pass a laser one at a time.

T1 sequence (P21802 other isoform, or with tags, fused parts or gaps): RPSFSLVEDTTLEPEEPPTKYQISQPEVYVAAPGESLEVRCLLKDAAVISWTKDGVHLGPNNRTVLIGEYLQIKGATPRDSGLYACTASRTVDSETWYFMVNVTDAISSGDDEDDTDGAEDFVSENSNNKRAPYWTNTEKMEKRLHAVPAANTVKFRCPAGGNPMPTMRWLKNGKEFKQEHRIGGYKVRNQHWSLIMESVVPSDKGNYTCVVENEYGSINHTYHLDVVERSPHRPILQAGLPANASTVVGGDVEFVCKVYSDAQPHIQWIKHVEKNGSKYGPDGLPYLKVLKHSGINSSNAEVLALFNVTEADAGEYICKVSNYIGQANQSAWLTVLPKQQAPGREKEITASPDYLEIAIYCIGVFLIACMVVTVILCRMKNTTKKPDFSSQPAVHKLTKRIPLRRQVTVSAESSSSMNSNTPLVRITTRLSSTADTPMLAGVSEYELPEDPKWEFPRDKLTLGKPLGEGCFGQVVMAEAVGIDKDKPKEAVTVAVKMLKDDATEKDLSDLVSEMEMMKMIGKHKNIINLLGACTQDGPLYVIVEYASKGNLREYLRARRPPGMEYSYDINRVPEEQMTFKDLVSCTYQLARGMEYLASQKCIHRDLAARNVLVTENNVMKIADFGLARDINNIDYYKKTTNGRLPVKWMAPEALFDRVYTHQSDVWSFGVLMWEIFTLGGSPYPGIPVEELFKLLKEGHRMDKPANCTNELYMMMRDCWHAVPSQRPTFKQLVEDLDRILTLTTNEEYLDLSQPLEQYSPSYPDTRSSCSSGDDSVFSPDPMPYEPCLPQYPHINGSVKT

B1: HC18 (antibody, human IgG1, kappa, V domains shown)
VH: EVQLQQSGTVLARPGASVKMSCKTSGYTFTSYWMHWVKQRPGQGLEWIGSIYPENSDTSYNQKFKGKAKLTAVTSASTAYMDLSSLTNEDSAVYYCSIYHGYDGDYWGQGTTLTVSS
VL: QIVLTQSPAIMSASPGEKVTITCSASSSVSYMYWFQQKPGTSPKLWIYSTSNLASGVPARFSGSGSGTSYSLTISRMEAEDAATYYCQQRSSYPYTFGGGTKLEIKR
notes: also called mAb HC18; the antibody of the present disclosure
B1: the binding result is “binds”.

For the origin of these results see patent EP4499701A1 (dated 2025).
